Columns and labels:
human IL-1β [1] = target: T1, human IL-1β (human, UniProt P01584 117-269); experiment: cell-based or functional assay
mouse IL-1β [2] = target: T2, mouse IL-1β (mouse, UniProt P10749 118-269); experiment: cell-based or functional assay
human IL-1β [3] = target: T1, human IL-1β; experiment: ProteOn bioanalyzer (BioRad)
Experimental: (§1) Matured clones (except P1E8) were tested for affinity towards mouse and human IL-1β using the ProteOn bioanalyzer (BioRad, Hercules, USA).

mouse IL-1β [4] = target: T2, mouse IL-1β; experiment: ProteOn bioanalyzer (BioRad)
Experimental: as §1

mouse IL-1β [5] = target: T2, mouse IL-1β; experiment: cell-based or functional assay; remark: listed apart in the source
human IL-1β [6] = target: T1, human IL-1β; experiment: cell-based or functional assay; remark: listed apart in the source
mouse IL-1β [7] = target: T2, mouse IL-1β; experiment: ProteOn bioanalyzer (BioRad); end of the range tied to P2D7 by Table 1
Experimental: as §1

mouse IL-1β [8] = target: T2, mouse IL-1β; experiment: direct ELISA, OD 460 nm against IgG 2H concentration
mouse IL-1β [9] = target: T2, mouse IL-1β; experiment: ProteOn bioanalyzer (BioRad); end of the range tied to P1H8 by Table 1
Experimental: as §1

Kd (human IL-1β [3]) [nM] | Kd (mouse IL-1β [4]) [nM] | EC50, inhibition of mouse IL-1β-induced IL-6 secretion by MRC5 cells (mouse IL-1β [5]) [nM] | EC50, inhibition of human IL-1β-induced IL-6 secretion by MRC5 cells (human IL-1β [6]) [nM] | Binder | also measured
– | – | – | – | Fab clone 1H (Fab, V domains shown) VH: EVQLVQSGAEVKKPGASVKVSCKASGYTFTSYYMHWVRQAPGQGLEWMGLVDPEDGETIYAEKFQGRVTITADTSTDTAYMELSSLRSEDTAVYYCARVEWVAGTEGWGYYFDYWGQGTLVTVSS VL: NFMLTQPHSVSESPGKTVTIPCTASSGSIANNFVQWYQQRPGSAPTTVIYEDSQRPSGVPDRVSGSIDSSSNSASLTISGLKTEDEADYYCQSYDSANDRVTFGGGTKLIVLG | IC50 (concentration inhibiting 50% of IL-1β activity), HEK-Blue IL-1β cells, SEAP reporter (human IL-1β [1]): 1.31 nM
– | – | – | – | IgG1 1H (antibody, V domains shown) VH: EVQLVQSGAEVKKPGASVKVSCKASGYTFTSYYMHWVRQAPGQGLEWMGLVDPEDGETIYAEKFQGRVTITADTSTDTAYMELSSLRSEDTAVYYCARVEWVAGTEGWGYYFDYWGQGTLVTVSS VL: NFMLTQPHSVSESPGKTVTIPCTASSGSIANNFVQWYQQRPGSAPTTVIYEDSQRPSGVPDRVSGSIDSSSNSASLTISGLKTEDEADYYCQSYDSANDRVTFGGGTKLIVLG | inhibition potency (EC50), human IL-1β induced IL-6 production in MRC5 cells (human IL-1β [1]): 3.92 nM; potency (EC50), neutralization in HEK-Blue cells stimulated with 4 pM human IL-1β (human IL-1β [1]): 2.6 nM; potency (EC50), neutralization in HEK-Blue cells stimulated with mouse IL-1β (mouse IL-1β [2]): 11.5 nM
– | – | – | – | Fab clone 2H (Fab, V domains shown) VH: QVQLQQWGAGLLKPSETLSLTCAVYGGSFSDYYWSWIRQPPGKGLEWIGEIDHSGSTNYNPSLKSRVTISVDTSRNQFSLSLSSVTAADTAVYYCARASPSSGWTLDYWGQGTLVTVSS VL: QSVLTQPPSVSVSPGQTASITCSGDKLGDKFAFWYQQKPGQSPVLVIYLDNKRPSGIPERFSGSNSGNTATLTISGTQALDEADYYCQAWDSNIEVFGGGTKLTVLG | IC50 (concentration inhibiting 50% of IL-1β activity), HEK-Blue IL-1β cells, SEAP reporter (human IL-1β [1]): 0.21 nM
0.00457 | 0.0166 | 0.197 | 0.011 | P2D8 (antibody, V domains shown, also called matured Ig P2D8) VH: QVQLQQWGAGLLKPSETLSLTCAVYGGSFSDYYWSWIRQPPGKGLEWIGEIDHSGSTNYNPSLKSRVTISVDTSRNQFSLSLSSVTAADTAVYYCARASPSSGWTLDYWGQGTLVTVSS VL: QSVLTQPPSVSVSPGQTASITCSGDKLGDKFAFWYQQKPGQSPVLVIYLDNKRPSGIPERFSGSNSGNTATLTISGTQALDEADYYCEAWADTYEVFGGGTKLTVLG | –
0.0031 | 0.0109 | 0.158 | 0.00653 | P2D7 (antibody, V domains shown, claim 45 pairs 17 with 14); also called matured Ig P2D7) VH: QVQLQQWGAGLLKPSETLSLTCAVYGGSFSDYYWSWIRQPPGKGLEWIGEIDHSGSTNYNPSLKSRVTISVDTSRNQFSLSLSSVTAADTAVYYCARASPSSGWTLDYWGQGTLVTVSS VL: QSVLTQPPSVSVSPGQTASITCSGDKLGDKFAFWYQQKPGQSPVLVIYLDNKRPSGIPERFSGSNSGNTATLTISGTQALDEADYYCYAWADTYEVFGGGTK | fold higher affinity compared to IgG 2H (mouse IL-1β [7]): 3 to 13 fold
– | – | 0.479 | 0.0453 | P1E8 (antibody, V domains shown) VH: QVQLQQWGAGLLKPSETLSLTCAVYGGSFSDYYWSWIRQPPGKGLEWIGEIDHSGSTNYNPSLKSRVTISVDTSKNQFSLKLSSVTAADTAVYYCARASPSSGWTLDYWGQGTLVTVSS VL: QSVLTQPPSVSVSPGQTASITCSGDKLGDKFAFWYQQKPGQSPVLVIYLDNKRPSGIPERFSGSNSGNTATLTISGTQALDEADYYCEAWDAAAEVFGGGTKLTVLG | –
0.0783 | 0.142 | 1.25 | 0.148 | IgG1 2H (antibody, V domains shown, also called IgG 2H; IgG clone 2H) VH: QVQLQQWGAGLLKPSETLSLTCAVYGGSFSDYYWSWIRQPPGKGLEWIGEIDHSGSTNYNPSLKSRVTISVDTSRNQFSLSLSSVTAADTAVYYCARASPSSGWTLDYWGQGTLVTVSS VL: QSVLTQPPSVSVSPGQTASITCSGDKLGDKFAFWYQQKPGQSPVLVIYLDNKRPSGIPERFSGSNSGNTATLTISGTQALDEADYYCQAWDSNIEVFGGGTKLTVLG | inhibition potency (EC50), human IL-1β induced IL-6 production in MRC5 cells (human IL-1β [1]): 0.35 nM; potency (EC50), neutralization in HEK-Blue cells stimulated with 4 pM human IL-1β (human IL-1β [1]): 0.17 nM; potency (EC50), neutralization in HEK-Blue cells stimulated with mouse IL-1β (mouse IL-1β [2]): 1.5 nM; EC50 (read off the curve) (mouse IL-1β [8]): ~0.3 nM
0.00673 | 0.0236 | 0.241 | 0.0207 | P1D9 (antibody, V domains shown, also called matured Ig P1D9) VH: QVQLQQWGAGLLKPSETLSLTCAVYGGSFSDYYWSWIRQPPGKGLEWIGEIDHSGSTNYNPSLKSRVTISVDTSRNQFSLSLSSVTAADTAVYYCARASPSSGWTLDYWGQGTLVTVSS VL: QSVLTQPPSVSVSPGQTASITCSGDKLGDKFAFWYQQKPGQSPVLVIYLDNKRPSGIPERFSGSNSGNTATLTISGTQALDEADYYCYAWDNAYEVFGGGTKLTVLG | –
0.0101 | 0.0489 | 0.623 | 0.0215 | P1H8 (antibody, V domains shown, also called matured Ig P1H8) VH: QVQLQQWGAGLLKPSETLSLTCAVYGGSFSDYYWSWIRQPPGKGLEWIGEIDHSGSTNYNPSLKSRVTISVDTSRNQFSLSLSSVTAADTAVYYCARASPSSGWTLDYWGQGTLVTVSS VL: QSVLTQPPSVSVSPGQTASITCSGDKLGDKFAFWYQQKPGQSPVLVIYLDNKRPSGIPERFSGSNSGNTATLTISGTQALDEADYYCQAWADSFEVFGGGTKLTVLG | fold higher affinity compared to IgG 2H (mouse IL-1β [9]): 3 to 13 fold

From US20190144535A1 (AGENCY FOR SCIENCE TECHNOLOGY AND RESEARCH, published 2019)
